Experimental data taken from the RNAGym collection of RNA variant scans (doi:10.1093/molbev/msab373).

B1: Azoarcus group I ribozyme (parent)
chain: GUGCCUUGCGCCGGGAAACCACGCAAGGGAUGGUGUCAAAUUCGGCGAAACCUAAGCGCCCGCCCGGGCGUAUGGCAACGCCGAGCCAAGCUUCGGCGCCUGCGCCGAUGAAGGUGUAGAGACUAGACGGCACCCACCUAAGGCAAACGCUAUGGUGAAGGCAUAGUCCAGGGAGUGGCGAAAGUCACACAAACCGG

Variants of: B1
Experiment: reverse-splicing fitness (ratio to wild type); higher = more active; in vitro selection; Mg2+ level not given
Outline: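 An in vitro group I ribozyme library with randomized positions was T7-transcribed and gel-purified. In triplicate, 10 pmol RNA in EPPS pH 7.5 was reacted with 50 pmoles of a 30-nt RNA substrate for 1 h at 37 °C across several added MgCl2 levels (1–48 mM), then stopped with EDTA. Products were reverse transcribed from a substrate-complementary primer, PCR-amplified and sequenced (HiSeq 4000). Fitness is a variant's read proportion after selection over that before, normalised to wild type.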

**Q.** With C82A A111C A120U A145G C150G C169G U176G as the variant, how does the reverse-splicing fitness read?
**A.** 0.00456

**Q.** With C82A A111C A120U A145G C150G C169G U176A as the variant, how does the reverse-splicing fitness read?
**A.** 0.0101

**Q.** Which reverse-splicing fitness does the source give for C82A A111C A120U A145G C150G C169G U176C here?
**A.** 0.00768

**Q.** With C82A A111C A120G A145U C150U C169A as the variant, how does the reverse-splicing fitness read?
**A.** 0.00903

**Q.** With C82A A111C A120G A145U C150U C169U as the variant, how does the reverse-splicing fitness read?
**A.** 0.00924

**Q.** For C82A A111C A120G A145U C150U C169G, which reverse-splicing fitness is on record?
**A.** 0.00909

**Q.** With C82A A111C A120G A145U C150G C169A as the variant, how does the reverse-splicing fitness read?
**A.** 0.00851

**Q.** Which reverse-splicing fitness does the source give for C82A A111C A120G A145U C150G C169U here?
**A.** 0.00788

**Q.** For C82A A111C A120G A145U C150G C169G, which reverse-splicing fitness is on record?
**A.** 0.00749

**Q.** For C82A A111C A120U A145C C150G C169U, which reverse-splicing fitness is on record?
**A.** 0.005

**Q.** For C82A A111C A120U A145C C150G C169G, which reverse-splicing fitness is on record?
**A.** 0.00355

**Q.** With C82A A111C A120U A145C C150G C169A as the variant, how does the reverse-splicing fitness read?
**A.** 0.00359

**Q.** For C82A A111C A120G C150U C169U U176G, which reverse-splicing fitness is on record?
**A.** 0.00631

**Q.** With C82A A111C A120G C150U C169U U176A as the variant, how does the reverse-splicing fitness read?
**A.** 0.0157

**Q.** With C82A A111C A120G C150U C169U U176C as the variant, how does the reverse-splicing fitness read?
**A.** 0.0155

**Q.** Which reverse-splicing fitness does the source give for C82A A111C A120G A145U C150U C169U U176C here?
**A.** 0.012

**Q.** Which reverse-splicing fitness does the source give for C82A A111C A120G A145U C150U C169U U176G here?
**A.** 0.00648

**Q.** With C82A A111C A120G A145U C150U C169U U176A as the variant, how does the reverse-splicing fitness read?
**A.** 0.0153

**Q.** For C82A A111C A120U A145C C150A C169G U176C, which reverse-splicing fitness is on record?
**A.** 0.00345

**Q.** For C82A A111C A120U A145C C150A C169G U176A, which reverse-splicing fitness is on record?
**A.** 0.0036

**Q.** Which reverse-splicing fitness does the source give for C82A A111C A120U A145C C150A C169G U176G here?
**A.** 0.00211

**Q.** Which reverse-splicing fitness does the source give for C82A A111C A120U C150G here?
**A.** 0.00737

**Q.** Which reverse-splicing fitness does the source give for C82A A111C A120U C150A here?
**A.** 0.00696

**Q.** Which reverse-splicing fitness does the source give for C82A A111C A120G A145U C150U C169G U176C here?
**A.** 0.014

**Q.** For C82A A111C A120G A145U C150U C169G U176A, which reverse-splicing fitness is on record?
**A.** 0.012

**Q.** Which reverse-splicing fitness does the source give for C82A A111C A120G A145U C150U C169G U176G here?
**A.** 0.00522

**Q.** Which reverse-splicing fitness does the source give for C82A A111C A120U A145U C150U here?
**A.** 0.0169

**Q.** Which reverse-splicing fitness does the source give for C82A A111C A120U A145U C150A here?
**A.** 0.00598

**Q.** Which reverse-splicing fitness does the source give for C82A A111C A120U A145U C150G here?
**A.** 0.00626

**Q.** Which reverse-splicing fitness does the source give for C82A A111C A120U A145C C150A U176C here?
**A.** 0.00528

**Q.** With C82A A111C A120U A145C C150A U176G as the variant, how does the reverse-splicing fitness read?
**A.** 0.00289

**Q.** With C82A A111C A120U A145C C150A U176A as the variant, how does the reverse-splicing fitness read?
**A.** 0.00393

**Q.** With C82A A111C A120G A145U C169A U176C as the variant, how does the reverse-splicing fitness read?
**A.** 0.0104

**Q.** For C82A A111C A120G A145U C169A U176G, which reverse-splicing fitness is on record?
**A.** 0.00466

**Q.** Which reverse-splicing fitness does the source give for C82A A111C A120G A145U C169A U176A here?
**A.** 0.00852

**Q.** For C82A A111C A120G A145U C150A C169U U176A, which reverse-splicing fitness is on record?
**A.** 0.017

**Q.** For C82A A111C A120G A145U C150A C169U U176G, which reverse-splicing fitness is on record?
**A.** 0.00563

**Q.** For C82A A111C A120G A145U C150A C169U U176C, which reverse-splicing fitness is on record?
**A.** 0.0127

**Q.** With C82A A111C A120G A145U C150A C169G U176C as the variant, how does the reverse-splicing fitness read?
**A.** 0.0156

**Q.** For C82A A111C A120G A145U C150A C169G U176G, which reverse-splicing fitness is on record?
**A.** 0.00576

**Q.** Which reverse-splicing fitness does the source give for C82A A111C A120G A145U C150A C169G U176A here?
**A.** 0.0138

**Q.** Which reverse-splicing fitness does the source give for C82A A111C A120U A145C C169G U176A here?
**A.** 0.00292

**Q.** With C82A A111C A120U A145C C169G U176C as the variant, how does the reverse-splicing fitness read?
**A.** 0.00316

**Q.** For C82A A111C A120U A145C C169G U176G, which reverse-splicing fitness is on record?
**A.** 0.00255

**Q.** With C82A A111C A120U A145C C150U C169A U176C as the variant, how does the reverse-splicing fitness read?
**A.** 0.00378

**Q.** Which reverse-splicing fitness does the source give for C82A A111C A120U A145C C150U C169A U176A here?
**A.** 0.00309

**Q.** Which reverse-splicing fitness does the source give for C82A A111C A120U A145C C150U C169A U176G here?
**A.** 0.00233

**Q.** Which reverse-splicing fitness does the source give for C82A A111C A120U A145G C150U C169A here?
**A.** 0.00691

**Q.** With C82A A111C A120U A145G C150U C169U as the variant, how does the reverse-splicing fitness read?
**A.** 0.00603

**Q.** For C82A A111C A120U A145G C150U C169G, which reverse-splicing fitness is on record?
**A.** 0.0065

**Q.** Which reverse-splicing fitness does the source give for C82A A111C A120U A145U U176G here?
**A.** 0.00339

**Q.** Which reverse-splicing fitness does the source give for C82A A111C A120U A145U U176C here?
**A.** 0.0103

**Q.** Which reverse-splicing fitness does the source give for C82A A111C A120U A145U U176A here?
**A.** 0.00697

**Q.** For C82A A111C A120G C150G C169A, which reverse-splicing fitness is on record?
**A.** 0.0097

**Q.** For C82A A111C A120G C150G C169G, which reverse-splicing fitness is on record?
**A.** 0.00748

**Q.** For C82A A111C A120G C150G C169U, which reverse-splicing fitness is on record?
**A.** 0.00833

**Q.** Which reverse-splicing fitness does the source give for C82A A111C A120U A145G U176A here?
**A.** 0.00698

**Q.** With C82A A111C A120U A145G U176C as the variant, how does the reverse-splicing fitness read?
**A.** 0.0109

**Q.** Which reverse-splicing fitness does the source give for C82A A111C A120U A145G U176G here?
**A.** 0.0035

**Q.** With C82A A111C A120U A145C C150A C169U as the variant, how does the reverse-splicing fitness read?
**A.** 0.00355

**Q.** Which reverse-splicing fitness does the source give for C82A A111C A120U A145C C150A C169A here?
**A.** 0.00282

**Q.** Which reverse-splicing fitness does the source give for C82A A111C A120U A145C C150A C169G here?
**A.** 0.00308

**Q.** For C82A A111C A120U C150G C169A U176G, which reverse-splicing fitness is on record?
**A.** 0.00319

**Q.** Which reverse-splicing fitness does the source give for C82A A111C A120U C150G C169A U176C here?
**A.** 0.00597

**Q.** With C82A A111C A120U C150G C169A U176A as the variant, how does the reverse-splicing fitness read?
**A.** 0.00579

**Q.** With C82A A111C A120U C150A U176A as the variant, how does the reverse-splicing fitness read?
**A.** 0.00497

**Q.** With C82A A111C A120U C150A U176G as the variant, how does the reverse-splicing fitness read?
**A.** 0.00369

**Q.** For C82A A111C A120U C150A U176C, which reverse-splicing fitness is on record?
**A.** 0.00738

**Q.** For C82A A111C A120U, which reverse-splicing fitness is on record?
**A.** 0.0221

**Q.** Which reverse-splicing fitness does the source give for C82A A111C A120G A145U C169U U176C here?
**A.** 0.0118

**Q.** With C82A A111C A120G A145U C169U U176A as the variant, how does the reverse-splicing fitness read?
**A.** 0.0132

**Q.** For C82A A111C A120G A145U C169U U176G, which reverse-splicing fitness is on record?
**A.** 0.00449

**Q.** Which reverse-splicing fitness does the source give for C82A A111C A120G C150G here?
**A.** 0.00723

**Q.** Which reverse-splicing fitness does the source give for C82A A111C A120G C150A here?
**A.** 0.00933

**Q.** For C82A A111C A120G C150U, which reverse-splicing fitness is on record?
**A.** 0.0107

**Q.** With C82A A111C A120U A145C C150A C169U U176G as the variant, how does the reverse-splicing fitness read?
**A.** 0.00263

**Q.** Which reverse-splicing fitness does the source give for C82A A111C A120U A145C C150A C169U U176C here?
**A.** 0.00283

**Q.** With C82A A111C A120U A145C C150A C169U U176A as the variant, how does the reverse-splicing fitness read?
**A.** 0.0036

**Q.** With C82A A111C A120U A145C C169U as the variant, how does the reverse-splicing fitness read?
**A.** 0.00399

**Q.** With C82A A111C A120U A145C C169A as the variant, how does the reverse-splicing fitness read?
**A.** 0.00286

**Q.** Which reverse-splicing fitness does the source give for C82A A111C A120U A145C C169G here?
**A.** 0.00295

**Q.** For C82A A111C A120U A145C C150G U176G, which reverse-splicing fitness is on record?
**A.** 0.00265

**Q.** For C82A A111C A120U A145C C150G U176A, which reverse-splicing fitness is on record?
**A.** 0.00333
